Data set [1] relates to HeLa Kyoto. In words: solubility in G1/S (NP-40 vs SDS abundance) (log2 ratio); higher = more soluble. The settings on record: cell cycle stage: G1/S.
For data set [2], the system named is HeLa Kyoto. In words: melting temperature (median over replicates), in situ; higher = more thermally stable.
The subject of data set [3] is HeLa Kyoto. In words: solubility change mitosis vs G1/S (difference of NP-40 vs SDS log2 ratios) (log2 ratio difference); higher = more soluble in mitosis.
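Throughout, for melting temperature (median over replicates), in situ: HeLa Kyoto cells synchronized by double thymidine or nocodazole block, proteins quantified by TMT10plex mass spectrometry, three independent biological replicates.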
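Throughout, for solubility change mitosis vs G1/S (difference of NP-40 vs SDS log2 ratios): synchronized HeLa Kyoto cells (double thymidine block for G1/S, nocodazole release for mitosis), protein amounts in NP-40 versus SDS lysates quantified by mass spectrometry, three biological replicates.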
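Throughout, for solubility in G1/S (NP-40 vs SDS abundance): HeLa Kyoto cells arrested at G1/S by double thymidine block, proteins quantified by TMT10plex mass spectrometry in mild NP-40 versus SDS extracts, three biological replicates.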

As to “MMSIKAFTLVSAVERELLMGDKERVNIECVECCGRDLYVGTNDCFVYHFLLEERPVPAGPATFTATKQLQRHLGFKKPVNELRAASALNRLLVLCDNSISLVNMLNLEPVPSGARIKGAATFALNENPVSGDPFCVEVCIISVKRRTIQMFLVYEDRVQIVKEVSTAEQPLAVAVDGHFLCLALTTQYIIHNYSTGVSQDLFPYCSEERPPIVKRIGRQEFLLAGPGGLGMFATVAGISQRAPVHWSENVIGAAVSFPYVIALDDEFITVHSMLDQQQKQTLPFKEGHILQDFEGRVIVATSKGVYILVPLPLEKQIQDLLASRRVEEALVLAKGARRNIPKEKFQVMYRRILQQAGFIQFAQLQFLEAKELFRSGQLDVRELISLYPFLLPTSSSFTRSHPPLHEYADLNQLTQGDQEKMAKCKRFLMSYLNEVRSTEVANGYKEDIDTALLKLYAEADHDSLLDLLVTENFCLLTDSAAWLEKHKKYFALGLLYHYNNQDAAAVQLWVNIVNGDVQDSTRSDLYEYIVDFLTYCLDEELVWAYADWVLQKSEEVGVQVFTKRPLDEQQKNSFNPDDIINCLKKYPKALVKYLEHLVIDKRLQKEEYHTHLAVLYLEEVLLQRASASGKGAEATETQAKLRRLLQKSDLYRVHFLLERLQGAGLPMESAILHGKLGEHEKALHILVHELQDFAAAEDYCLWCSEGRDPPHRQQLFHTLLAIYLHAGPTAHELAVAAVDLLNRHATEFDAAQVLQMLPDTWSVQLLCPFLMGAMRDSIHARRTMQVALGLARSENLIYTYDKMKLKGSSIQLSDKKLCQICQNPFCEPVFVRYPNGGLVHTHCAASRHTNPSSSSPGTRT [TGFBRAP1]”, the “solubility in G1/S (log2)” value in the data set with HeLa Kyoto [1] was -0.0452. Also, the melting temperature in the data set on HeLa Kyoto [2] (cell cycle stage: mitosis) stood at 51.1 °C. The “solubility change mitosis (log2)” value with HeLa Kyoto [3] is -0.0966.
In the case of “MNNLNDPPNWNIRPNSRADGGDGSRWNYALLVPMLGLAAFRWIWSRESQKEVEKEREAYRRRTAAFQQDLEAKYHAMISENRRAVAQLSLELEKEQNRTASYREALISQGRKLVEEKKLLEQERAQVMQEKRQVQPLRSAYLSCLQREENWQRRARLLLKEFEAVLTERQNIYCSLFLPRSKRLEIEKSLLVRASVDPVAADLEMAAGLTDIFQHDTYCGDVWNTNKRQNGRLMWLYLKYWELVVELKKFKRVEEAILEK [CCDC127]”, the “solubility in G1/S (log2)” value in the data set with HeLa Kyoto [1] stood at 0.0789. For the same sequence, the melting temperature stood at 54 °C in the data set on HeLa Kyoto [2] (cell cycle stage: G1/S) and 52.5 °C in the data set with HeLa Kyoto [2] (cell cycle stage: mitosis). For the same sequence, the “solubility change mitosis (log2)” value in the data set with HeLa Kyoto [3] was 0.115.
Turning to “MNRVNDPLIFIRDIKPGLKNLNVVFIVLEIGRVTKTKDGHEVRSCKVADKTGSITISVWDEIGGLIQPGDIIRLTRGYASMWKGCLTLYTGRGGELQKIGEFCMVYSEVPNFSEPNPDYRGQQNKGAQSEQKNNSMNSNMGTGTFGPVGNGVHTGPESREHQFSHAGRSNGRGLINPQLQGTASNQTVMTTISNGRDPRRAFKR [NABP1]”, the “solubility in G1/S (log2)” value with HeLa Kyoto [1] is 0.0163. Also, the melting temperature in the data set with HeLa Kyoto [2] (cell cycle stage: mitosis) came out at 50.7 °C. Further, in the data set with HeLa Kyoto [3], the “solubility change mitosis (log2)” value is -0.222.
The corresponding values for “MNSTEFTEDVEEVLKSITVKVETEAEDAALDCSVNSRTSEKHSVDSVLTALQDSSKRKQLVSDGLLDSVPGVKRRRLIPEALLAGMRNRENSSPCQGNGEQAGRGRSLGNVWPGEEEPCNDATTPSYKKPLYGISHKIMEKKNPPSGDLLNVYELFEKANASNSPSSLRLLNEPQKRDCGSTGAGTDNDPNIYFLIQKMFYMLNTLTSNMSQLHSKVDLLSLEVSRIKKQVSPTEMVAKFQPPPEYQLTAAELKQIVDQSLSGGDLACRLLVQLFPELFSDVDFSRGCSACGFAAKRKLESLHLQLIRNYVEVYYPSVKDTAVWQAECLPQLNDFFSRFWAQREMEDSQPSGQVASFFEAEQVDPGHFLDNKDQEEALSLDRSSTIASDHVVDTQDLTEFLDEASSPGEFAVFLLHRLFPELFDHRKLGEQYSCYGDGGKQELDPQRLQIIRNYTEIYFPDMQEEEAWLQQCAQRINDELEGLGLDAGSEGDPPRDDCYDSSSLPDDISVVKVEDSFEGERPGRRSKKIWLVPIDFDKLEIPQPDFEVPGADCLLSKEQLRSIYESSLSIGNFASRLLVHLFPELFTHENLRKQYNCSGSLGKKQLDPSRIKLIRHYVQLLYPRAKNDRVWTLEFVGKLDERCRRRDTEQRRSYQQQRKVHVPGPECRDLTSYAINPERFREEFEGPPLPPERSSKDFCKIPLDELVVPSPDFPVPSPYLLSDKEVREIVQQSLSVGNFAARLLVRLFPELFTAENLRLQYNHSGACNKKQLDPTRLRLIRHYVEAVYPVEKMEEVWHYECIPSIDERCRRPNRKKCDILKKAKKVEK [BEND3]” are -0.105, 48.1 °C and 0.152.
Regarding “MPGGCSRGPAAGDGRLRLARLALVLLGWVSSSSPTSSASSFSSSAPFLASAVSAQPPLPDQCPALCECSEAARTVKCVNRNLTEVPTDLPAYVRNLFLTGNQLAVLPAGAFARRPPLAELAALNLSGSRLDEVRAGAFEHLPSLRQLDLSHNPLADLSPFAFSGSNASVSAPSPLVELILNHIVPPEDERQNRSFEGMVVAALLAGRALQGLRRLELASNHFLYLPRDVLAQLPSLRHLDLSNNSLVSLTYVSFRNLTHLESLHLEDNALKVLHNGTLAELQGLPHIRVFLDNNPWVCDCHMADMVTWLKETEVVQGKDRLTCAYPEKMRNRVLLELNSADLDCDPILPPSLQTSYVFLGIVLALIGAIFLLVLYLNRKGIKKWMHNIRDACRDHMEGYHYRYEINADPRLTNLSSNSDV [TPBG]”, the “solubility in G1/S (log2)” value in the data set on HeLa Kyoto [1] was determined as 0.234. In addition, the melting temperature in the data set on HeLa Kyoto [2] (cell cycle stage: G1/S) and with HeLa Kyoto [2] (cell cycle stage: mitosis) was 53.4 °C in each case. For the same sequence, the “solubility change mitosis (log2)” value in the data set with HeLa Kyoto [3] was found to be 0.104.
In the case of “MPLRKMKIPFLLLFFLWEAESHAASRPNIILVMADDLGIGDPGCYGNKTIRTPNIDRLASGGVKLTQHLAASPLCTPSRAAFMTGRYPVRSGMASWSRTGVFLFTASSGGLPTDEITFAKLLKDQGYSTALIGKWHLGMSCHSKTDFCHHPLHHGFNYFYGISLTNLRDCKPGEGSVFTTGFKRLVFLPLQIVGVTLLTLAALNCLGLLHVPLGVFFSLLFLAALILTLFLGFLHYFRPLNCFMMRNYEIIQQPMSYDNLTQRLTVEAAQFIQRNTETPFLLVLSYLHVHTALFSSKDFAGKSQHGVYGDAVEEMDWSVGQILNLLDELRLANDTLIYFTSDQGAHVEEVSSKGEIHGGSNGIYKGGKANNWEGGIRVPGILRWPRVIQAGQKIDEPTSNMDIFPTVAKLAGAPLPEDRIIDGRDLMPLLEGKSQRSDHEFLFHYCNAYLNAVRWHPQNSTSIWKAFFFTPNFNPVGSNGCFATHVCFCFGSYVTHHDPPLLFDISKDPRERNPLTPASEPRFYEILKVMQEAADRHTQTLPEVPDQFSWNNFLWKPWLQLCCPSTGLSCQCDREKQDKRLSR”, the “solubility in G1/S (log2)” value in the data set with HeLa Kyoto [1] worked out at 0.0818. For the same sequence, the melting temperature with HeLa Kyoto [2] (cell cycle stage: G1/S) was 55.8 °C; in the data set on HeLa Kyoto [2] (cell cycle stage: mitosis) it was 55.3 °C. Further, the “solubility change mitosis (log2)” value with HeLa Kyoto [3] is -0.0688.
For “MPVKKKRKSPGVAAAVAEDGGLKKCKISSYCRSQPPARLISGEEHFSSKKCLAWFYEYAGPDEVVGPEGMEKFCEDIGVEPENIIMLVLAWKLEAESMGFFTKEEWLKGMTSLQCDCTEKLQNKFDFLRSQLNDISSFKNIYRYAFDFARDKDQRSLDIDTAKSMLALLLGRTWPLFSVFYQYLEQSKYRVMNKDQWYNVLEFSRTVHADLSNYDEDGAWPVLLDEFVEWQKVRQTS [DCUN1D5]”, the “solubility in G1/S (log2)” value in the data set on HeLa Kyoto [1] stood at 0.214. Also, in the data set on HeLa Kyoto [2] (cell cycle stage: mitosis), the melting temperature turned out to be 47.5 °C. Besides, the “solubility change mitosis (log2)” value in the data set with HeLa Kyoto [3] was -0.0762.
For the sequence “MRCCHICKLPGRVMGIRVLRLSLVVILVLLLVAGALTALLPSVKEDKMLMLRREIKSQGKSTMDSFTLIMQTYNRTDLLLKLLNHYQAVPNLHKVIVVWNNIGEKAPDELWNSLGPHPIPVIFKQQTANRMRNRLQVFPELETNAVLMVDDDTLISTPDLVFAFSVWQQFPDQIVGFVPRKHVSTSSGIYSYGSFEMQAPGSGNGDQYSMVLIGASFFNSKYLELFQRQPAAVHALIDDTQNCDDIAMNFIIAKHIGKTSGIFVKPVNMDNLEKETNSGYSGMWHRAEHALQRSYCINKLVNIYDSMPLRYSNIMISQFGFPYANYKRKI [EXTL2]”, the “solubility in G1/S (log2)” value with HeLa Kyoto [1] was determined as 0.132. In addition, the melting temperature in the data set on HeLa Kyoto [2] (cell cycle stage: G1/S) amounted to 56.7 °C; with HeLa Kyoto [2] (cell cycle stage: mitosis) it was 58.5 °C. Further, the “solubility change mitosis (log2)” value with HeLa Kyoto [3] is -0.23.

Values taken from the supplement of paper PMC5998384.
